Assays:
[1] = biological target: T1, GST-SH3-Yes fusion protein (Gallus gallus (Chicken), UniProt P09324, 35S-methionine labeled when used as probe); experiment: membrane binding assay, radioactively labeled TrpE-YAP65 on blotted GST fusions
Description: (§1) FIG. 5. Binding between YAP65 and Yes in vitro. (A) TrpE-YAP65 fusion protein (2,4,5,6,7) or TrpE alone (1,3) were probed on Western blots with ^35S-methionine labeled GST-Yes-SH3 alone (2) or with radioactive GST-Yes-SH3 supplemented with 10 µM of cold GST-Yes-SH3 (4); Lane 5 is as in lane 2 but the incubation was in the presence of SPLAP peptide (200 µM); lanes 6 and 7, the binding was competed with 50 µM and 200 µM of the PLAP peptide, respectively. The arrow indicates partially purified TrpE-YAP65 fusion protein. Lower migrating protein bands represent products of proteolytic degradation. Even if an increased concentration of protease inhibitors and careful purification protocols were used, we always observed limited degradation of the TrpE-YAP65 protein. Equal amounts (8 µg) of TrpE-fusion protein or TrpE protein were loaded into each lane of the SDS-polyacrylamide gel and transferred to nitrocellulose. […]
To perform reciprocal binding and to estimate the relative specificity of YAP65 binding to other proteins that contain SH3 domains, we probed the purified GST fusion proteins of Nck, Crk, Src, Abl and GAP with radioactively labeled Trp-E-YAP65 protein. The same amount of protein was analyzed in a membrane binding assay; TRPE-YAP-65 bound the strongest to Nck and Yes followed by Crk, and Src. […]

GST alone = GST alone (Schistosoma japonicum (Blood fluke), UniProt P08515 = GST, 32P-labelled when used as probe in Example 5); experiment: Western ligand blot on TrpE-YAP65
[2] = biological target: T1, GST-SH3-Yes fusion protein; experiment: competition of labeled GST-YES-SH3 binding to blotted TrpE-YAP65 by the scrambled peptide
Description: as §1, with “nitrocellulose. (B) Differential binding of ^35S-labeled TrpE-YAP65 fusion protein to various fusion proteins containing SH3 domains. Before the Western transfer, we had loaded equal amounts (1 µg) of purified proteins into each lane of the SDS gel. An SDS-polyacrylamide gel was run in parallel and stained with Coomassie Blue to confirm equal concentrations of the purified proteins.” for “nitrocellulose.”

B1: TrpE-YAP65 fusion protein (other)
chain: MQTQKPTLELLTCEGAYRDNPTALFHQLCGDRPATLLLESADIDSKDDLKSLLLVDSALRITALGDTVTIQALSGNGEALLALLDNALPAGVESEQSPNCRVLRFPPVSPLLDEDARLCSLSVFDAFRLLQNLLNVPKEEREAMFFGGLFSYDLVAGFEDLPQLSAENNCPDFCFYLAETLMVIDHQKKSTRIQASLFAPNEEEKQRLTARLNELRQQLTEAAPPLPVVSVPHMRCECNQSDEEFGGVVRLLQKAIRAGEIFQVVPSRRFSLPCPSPLAAYYVLKKSNPSPYMFFMQDNDFTLFGASPESSLKYDATSRQIEIPASLQLGAVSPGTLTPSGVVTGPGAPSSQHLRQSSFEIPDDVPLPPGWEMAKTPSGQRYFLNHIDQTTTWQDPRKAMLSQMNVTAPTSPPVQQNLMNSASAMNQRISQSAPVKQPPPLAPQSPQGGVMGGSSSNQQQQMRLQQLQMEKERLRLKHQELLRQELALRSQLPTMEQDGGSQNPVSSPGMSQELRTMTTNSSDPFLNSGTYHSRDESTDSGLSMSSYSVPRTPDDFLNSVDEMDTGDSISQSNIPSHQNRFPDYLEAIPGTNVDLGTLEGDGMNIEGEELMPSLQEALSSDILNDMES
modifications: 35S-labeled when used as probe
B1: binds [1]; no binding (GST alone).

B2: SPLAP peptide (peptide)
peptide: VQPAQLSIPGPVSPQPKGQSPA
B2: no binding (tested: 200 µM) [2].

Reference: patent publication US6034212, “SH3 kinase domain associated protein, a signalling domain therein, nucleic acids encoding the protein and the domain, and diagnostic and therapeutic uses thereof” (The Rockefeller University, dated 2000)
